Test results as given in the DeepSol protein solubility set.

Assay: soluble on expression in E. coli; label from the status in PepcDB or PDB records

Sequence	soluble on expression in E. coli
MNSSLKNLLNNKILVLDGAMGTCIQSFNLDEGDFKGSLSCTCHSNQKGNNDVLNLTKPEIIKEIHKRYLEAGADIIETNTFNATEISQKDYNMQDKIYDINFKGAKLAKEACTYYTKLNPNKPRFAAGSIGPTNRTASLSPDVENPGFRNVTFDELCNAYKHQIEALIDGGVDLLLIETIFDTLNARAAIFAAETVFENKKIKLPIIISGTIADKSGRILSGQTLDAFAESLKNENIIAIGLNCSFGAEELIPFIKRLSETQNRYISFHPNAGLPNSLGEYEELPEETASIVKKLALEGHLNIVGGCCGTTPEHIRAISSVVKGISPRKVPNLEPKTIYSGLENIKIDKNSNFINIG	not soluble
MNTEKSEKCINVAPSGIRRMKKIHQMEIAQLFEYRRNCLGEKRTAVENVINAKVVAWNLAVVRRRHYFDLHGMTPQGAVDFVAQIVEGRRPGYIKLETGRGNHSKDNIPAIQNRLLQDFGNLSGFQIAIDPSNLGVLILSFQ	not soluble
MNTGHHKVADTLIDFLHRQFPWVESKKIDFLSYCNELMEKMVSGAYLRWIRSHPASYHRVYKTFMYEESLRLEFVSFEPWLPYFEGKMKKMLEQERPDLIVCTHSFPSRILQQLKRKKVLAIPVVNVYTDFFMNSIWGKRFIDYHFVPHQEAKRELIVKHGIDERRIVVTGIPVHDTFMKAAALEHHHHHH	not soluble
MNTISGTHFNYHQVCRRKLWLFSAGITMEHTSDLVYEGKLIHETTYQQRPERYQELELDGIKIDFYDAKNRVVHEVKKSNKISPAHRLQLLYYLYVLERNGVLGATGILEYPTLRKKEEVILSDIDRERIREIEQEILQIISHEDCPPVIDSGICKNCSYYEFCFSGEEQ	not soluble
MNTMNSVLKYKELALYGGSFDPLHKAHLAIIEQTLELLPSAKLIVLPAYQNPFKKPCFLDAQTRFKELERALKGIDRVLLSDFEIKQERAVPTIESVLHFQKLYHPQTLYLVIGADCLRHLSSWTNAKELLKRVELVVFERIGYEEIQFKGHYHPLKGIDAPISSSAIRASLGV	not soluble
MNTRQLLSVGIDIGTTTTQVIFSRLELVNRAAVSQVPRYEFIKRDISWQSPVFFTPVDKQGGLKEVELKALILAQYQAAGIAPESVDSGAIIITGESAKTRNARPAVMALSQSLGDFVVASAGPHLESVIAGHGAGAQSLSEQRMCRVLNIDIGGGTSNYALFDAGKVSGTACLNVGGRLLETDAQGRVVYAHQPGQMIIDEVFGSGTDARALAAAQLGQVARRMADLIVEVITGALSPLAQSLMQTGLLPADITPEVITLSGGVGECYRNQPADPFCFSDIGPLLATALHEHPRLREMNVQFPAQTVRATVIGAGAHTLSLSGSTIWLEDVQLPLRNLPVAIPQDDADLVNAWRQALLQLDLDPQTDAYVLALPATLPVRYAALLTVINALTAFVARYPNPHPLLVVAEQDFGKALGMLLRPQLPQLPLAVIDEVVVRAGDYIDIGTPLFGGSVVPVTVKSLAFPS	not soluble
MNVEKLKKMKGKEKIVMVTAYDAPSARIARDAGIDVILVGDSLGNNVLGYENTIPVTMEEMLIHVAAVKRGAPDAFIVADMPFLSYQTSVEKAVENAGKFLKVGANAVKIEGGEEFGELVQKLVESGIPVMGHIGLTPQFVNRFGGYRVQGKTEKNREYLLRSARELEKRGAFAIVLELVVEEVAKEITESVSIPTIGIGSGRFCDGQVLVWHDLLGLNPDFAPRFSKKYANLYEVILKALQEFRREVKKGLFPTEEHSFTDKSKGGVSS	soluble
MNVKEVVTEEQLHDVLPVLQQLRTKLSKEETSSLFRNMKEENYKLFSLRNEDDEVVSLAGVAICTNFYNKKHVFVYDLVTAEAHRSKRHGKVLLSYIENWGKENECESIVLTSAFSRIDAHRFYEREGYDKVSYSFHKEL	not soluble
MNVKSRQQENAEATREALLESALSAFIEHGYGGVSIDAIAREARVTKGAFYHHFGSKQELLAECYERQVRTIAEDLDRVPAHVDKWAEAAALAEAFIDSVMARGKRQLSLQEVITVVGWERWKRIDSRHTLRYVGRLVDELAASGELKDYRRETLVGQLYGFLTQAAMSLRDARNKRQAANEVKAIIRDFLYSLRRG	not soluble
MNVQETYLKELKARGYQPDEAQQRAVDRLQLCYDEWVAYKARRSSALRKLLVRPELPRGVYMWGGVGRGKSFLMDAFYSCVPVVRKTRLHFHEFMREVHRQLEELRGRADPLDELARRIAKRYRLICFDEFHVSDVADAMILHRLLDQLFANGVQFVMTSNYRPDLLYPDGLHRDRVLPAIALLQEKLDVLNVDAGIDYRKRAMEQVQAYHTPLGAQANSALRDAFAAVAEAPDESPILHIEHREIRAQRKAGGVVWFDFATLCGGPRSQNDYLEIAARFHTVILADVPKMTPRMASEARRFTWLIDVLYDHKVKLLMSAEVPADALYTEGQMANEFHRTVSRIIEMQSREYLEAPRRAVDTTLTLEHHHHHH	not soluble
MNVTVAPQDETLSARAGRVATIAAKHADDVDVTGRFPQEAVDALRRERLLGIQVPSSLGGEGASIQEIADICARLGQACSATAMIFAMHHIKLSSLVEHGVDSTWHPGFMRRVAGEQLLLGSATTEGGIGGNLRNSICAIEVEGDSCRLEKDATVISYGSNADAILITSRAHKDAAPADQVMTVFLKNQYTLEKTHVWDTLGMRGTCSDGFLFRGEAPAAQIFPKPFAEIAAQSMLASSHLLWSAVWYGIASDAVLRAQSFVRAAARKSPGTAPPGAIRLAEVSTKLQVVKSNIIAGIKAYEDTKSDPEKLMSMAFAVAMNNVKICSSETILEIIDHAMLVCGIMGYKNGTPYSLGRHLRDAHSARLMISNDRILGNSANLLLVHRQDTSLLG	soluble
MNWYEKLSEYFPIEEMKSKAHMEALLKERSDIYHKDEGKHHILMFAEFDSFIFVDYLYVSKDARGQGLGGKLIAKLKKKNKPILLEVEPVDEDDTDTEKRLRFYQREHFKHAQSIGYRRRSLATNEVNKIEILYWSPKTESEEEILEAMKQTYENIHTYKDEKWYGESYEKTDEVLEIIDEEKQKNIFDQLS	not soluble
MNYKVTAEAIPDYQSKNAPISSYWMPDKFLEWSAENDKDLVYNQSRVPLTKRISPDKLSPSNQNQNKKTKIVALSMMNSQTSGNPSRGTTKFESYTFDYWQYIDTLVYWGGSSGEGIIVTPSADVIDEAHSNGVPVLGTIFLPPKEYGGKVDWVKTMLKKDEQGQYPFASQMVKVAKTYGFEGWFINEETQGLNADDAANMKALIQQVKKEDSSLQIMWYDAMTKDGKVDWQNQLNDQNATFVQDKAADAMFLNFWWTQNNLADQKLLEKSNLYAKNHNIDPYNIYAGIDVQAKDVQTPVKWNLLEKGNQATQTSIGLYAASATYTNASNWDDFQNRESAFWVNQKADPRQVDHSVNESWTGLSKYVLEKSAISGNEFNTNFNLGNGYNYFKAGQKISEMDWNDRSLAGILPSYRWIIDNEGKNKISPSFDFANAYNGGNSLKFMAEHLDAGKLEHHHHHH	not soluble
MNYMPGTASLIEDIDKKHLVLLRDGRTLIGILRSIDQFANLVLHQTVERIHVGKKFGDIPRGIFVVRGENVVLLGEVDLDKECDQILQRVSIEEILEEQRTEQQAKQESERLKLQAVKERGLSIPKADTLDDF	soluble
MNYSACTSILVGPQATMDGSVLIGRNEDAKAAWPKHFIVHPATTVATPPQFVSTDNGFTMPLPTQAAKYTATPEWTDKYGLFEEDGINEYGVAMSATESTYSNERVLGADPLVKDGLGEEAMVTVVLPYVKTAREGVARLGQLIEQYGTNESNGILFADQQEAWYLETGAGHYWVAQRIPANAYAVVANQMAIQAVDFADADNFMFAKNLQAFVTDNHLNPHPDRFIWREIFGTQDQSDLYYNTPRVWYGQKRFTPQVSQEPQSFDLPFIQYADRLLSVGDAQQYLSSHFEETPYDPVGSGTAEQKHRFRPVSLAKTQESHVLQLRPNMTPGLAGIQWLAMGVGAQSVYVPFYAGIDSTPEAYHLGTETYDSKSAYWTYKLVSVLLDAHYHTALPTVSETQKALRIAFKQAVQETDRGAQTLSGTELSRYLTQRSNEVAELGLKRYRELAATLITRATDLGPLNYHQDLNLLEHHHHHH	not soluble
MPAHSLSLYQYYRPPLDWQAQLAFYRLRAVAGMEWFSNTDNDCLEKIAQDKQALEYGRTLQIDDIRAVVHIIHEAHLHRFKLTLTFTPDSPIAGLQKLITQVRRILDLDADMQQIEHNLQRLTDLKLIPKSGLRIPGAGSLEHHHHHH	not soluble
MPATNDGPDDGAHLSKSEQTRALILETAMRLFQERGYDRTTMRAIAQEAGVSVGNAYYYFAGKEHLIQGFYDRIAAEHRAAVREVLARETDLEARLAGVLKVWLDIATPYHEFAVQFFKNAADPDSPLSPFSPESEHARVEAIGIHRAVLAGAKTKVPEELRDILPELMWLSQMGLVLYWIFDRTEGRERSYRLAERGARLTARGVVLARFRVLRPLVREVHELFTDFLPGMTKVMPDPAKKPTRDAGPQA	soluble
MPDQPLNQDGFPTASKGVEPDNLPDRVLVDGLKPKHQQLREILEEICTTQLQPGDMLPGERILEEKYGVSRITVRRAIGDLVASGRLKRARGKGTFVAHSPLISRLHLASFSAEMAAQKLSATSRILSSSRGPAPDDIADFFGTDRAAQHITLRRLRLGNGRPYAIDNGWYNSEFAPDLLENDVYNSVYSILDRVYGVPVTQAEQTVTAVAADEDTARLLDVTPGAPLLRILRQSLSGDKPVEWCVSLYRTDRYSLKTLVTRSEDL	soluble
MPEEMDKPLISLHLVDSDSSLAKVPDEAPKVGILGSGDFARSLATRLVGSGFKVVVGSRNPKRTARLFPSAAQVTFQEEAVSSPEVIFVAVFREHYSSLCSLSDQLAGKILVDVSNPTEQEHLQHRESNAEYLASLFPTCTVVKAFNVISAWTLQAGPRDGNRQVPICGDQPEAKRAVSEMALAMGFMPVDMGSLASAWEVEAMPLRLLPAWKVP	soluble
MPEISPYVTKTEVQLMMAGLDYRKTNGSRDTAPKGQLPWIVDAAQAIADSTFIRVHIERKYDVDLDFGLTGRERAQAWAIERMIENQLGWVSTYFRFLEPANFERGPARAFDQAPGHLRDELRQGLREAVAANIRAVGVGRHLREEVAWLGGLSLRALDELLEDKAYLMRDAYPVGVDATAFAMLAAIMTPFFDSPLRRQAERYPRLVAYVGRMMERFYPAHPWGLRQAALEHHHHHH	not soluble
MPFCPEEFYCRITQNIESLNNIAKIQHAANTDYLTDLANRRAFFRSAESRIKEYINKKVPYCLAMIDVDFFKKVNDTYGHDSGDQVLKVIALYMRKHFGAGLTARLGGEEFAVLLHGLDADYLHNKLDDFRREIAVSSIPAGDTSISITLSLGVVFDSEDELSKQMNEADNALYAAKENGRNQIVVFGAELDDLEHHHHHH	not soluble
MPFRSNNPITRDELLSRFFPQFHPVTTFNSGLSGGSFLIEHQGQRFVVRQPHDPDAPQSAFLRQYRALSQLPASIAPKPHLYLRDWMVVDYLPGAVKTYLPDTNELAGLLYYLHQQPRFGWRITLLPLLELYWQQSDPARRTVGWLRMLKRLRKAREPRPLRLSPLHMDVHAGNLVHSASGLKLIDWEYAGDGDIALELAAVWVENTEQHRQLVNDYATRAKIYPAQLWRQVRRWFPWLLMLKGGWFEYRWRQTGDQQFIRLADDTWRQLLIKQ	not soluble
MPGACGIYALATVSKPDPDMTQIITALAEISERYRALFVDLWGCVHNGVTAYPEAVAALQAYRAAGGIVVLVTNSPKPRAGVATQLSQFKVPQDAYDTIATSGDSARSAMFRGAVGQKVYFMGEWERDAGFFEPLKLLDSPVEITRVPLQEAEGIVCCGPFDPMADPAVNRPDFLYAKTKGMKLLCANPDIVVDRGEIREWCAGALARLYTEMGGESLYFGKPHPPIYDLARRRLLSLGADIADSEILAIGDGIQTDIAGGQGEGIDSLFISGGLAASETKTGHSPDPAALTAYLDRENRMPTYTIGQLR	not soluble
